Among the data in paper PMC3506662, “The Peripheral Binding of 14-3-3γ to Membranes Involves Isoform-Specific Histidine Residues” (PLoS ONE, 2012) are Kd values, retold here.

Usually Kd stands for the free concentration of one partner at which half of the binding sites on the other are occupied at equilibrium, for simple one-to-one binding.

Where no end group is shown, it is not given here. [ ]: non-standard residue; d: D form. pS = N[C@@H](COP(=O)(O)O)C(=O)O

Assay [1] has as its target T1, human 14-3-3γ, wild-type (human, UniProt P61981 2-247).
T1 construct: 14-3-3 protein gamma, human; d14-3-3γ is the same protein after extensive dialysis into phosphate-free 10 mM Na-Hepes, pH 7.4; also called wt-14-3-3γ; d14-3-3γ; source: E. coli (BL-21, codon+), GST fusion purified on glutathione-Sepharose 4B, cleaved by thrombin, further purified
T1 sequence: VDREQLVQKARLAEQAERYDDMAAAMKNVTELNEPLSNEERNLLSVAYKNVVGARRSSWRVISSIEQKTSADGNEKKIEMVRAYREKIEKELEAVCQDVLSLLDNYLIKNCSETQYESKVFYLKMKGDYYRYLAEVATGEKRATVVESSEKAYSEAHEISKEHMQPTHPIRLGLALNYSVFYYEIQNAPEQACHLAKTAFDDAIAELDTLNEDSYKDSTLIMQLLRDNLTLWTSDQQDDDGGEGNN
The assay can be described thus: SPR; data not shown; Biacore 3000, 25°C; wt-d14-3-3γ immobilised by amine coupling on CM5 (about 5 000 RU); THp-(1-43) injected in 10 mM Na-Hepes, pH 7.4, 0.005% P20; 0 mM salt. To be noted: both partners purified. For orientation: SPR reads the build-up and loss of mass on a sensor chip optically.

Assay [2] deals with T1, human 14-3-3γ, wild-type. The assay can be described thus: differential scanning fluorimetry; d14-3-3γ titrated with peptide from a 0.21 mM stock; SYPRO Orange; 20 to 95°C at 2°C/min; shift of Tm fitted to equation 1; legend: 10 µM subunit in 10 mM Na-Hepes, pH 7.4, 150 mM NaCl. To be noted: both partners purified. (Differential scanning fluorimetry follows unfolding on heating by fluorescence.)

B1: THp-(1-43), Ser19-phosphorylated N-terminal peptide of human tyrosine hydroxylase isoform 1 (peptide)
peptide: MPTPDATTPQAKGFRRAV[pS]ELDAKQAEAIMSPRFIGRRQSLIE
notes: also called phosphopeptide; source: synthetic peptide (CPC Scientific), approx. 90% purity
As for B1, the Kd with human 14-3-3γ, wild-type [1] was ~220 nM; with human 14-3-3γ, wild-type [2] it was ~190 nM.
